Laboratory results from patent US20260001928A1 (CORTERIA PHARMACEUTICALS, priority 2022, published 2026).
*1 amine or outer side, *2 acyl side, *3 side chain or, on linkers, in order; H or OH if unused. Side-chain parts run from the residue outwards. [ ]: non-standard residue; d: D form. The star is where a group is joined. C18 diacid = O=C(O)CCCCCCCCCCCCCCCCC(=O)*; C16 diacid = O=C(O)CCCCCCCCCCCCCCC(=O)*; γGlu = O=C(O)[C@H](CCC(=O)[*:2])N[*:1]; αMeK = C[C@](N)(CCCCN)C(=O)O; Nva = CCC[C@H](N)C(=O)O; Abu = CC[C@H](N)C(=O)O; Dap = NC[C@H](N)C(=O)O; AEEA = NCCOCCOCC(=O)O; Aib = CC(C)(N)C(=O)O

T1: CRF1R receptor (UniProt P34998 24-415, limits assumed)
T1 sequence (looked up): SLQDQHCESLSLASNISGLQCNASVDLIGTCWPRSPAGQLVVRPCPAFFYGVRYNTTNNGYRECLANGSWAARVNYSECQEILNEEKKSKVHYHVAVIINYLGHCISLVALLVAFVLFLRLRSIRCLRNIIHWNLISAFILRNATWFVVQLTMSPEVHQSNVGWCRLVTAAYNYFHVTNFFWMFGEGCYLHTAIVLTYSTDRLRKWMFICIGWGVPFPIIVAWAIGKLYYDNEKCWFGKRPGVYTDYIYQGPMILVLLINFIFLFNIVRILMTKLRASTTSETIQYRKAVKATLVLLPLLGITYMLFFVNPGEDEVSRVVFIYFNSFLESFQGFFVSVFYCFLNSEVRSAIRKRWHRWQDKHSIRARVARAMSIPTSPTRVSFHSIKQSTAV

B1: SEQ ID NO 41 (peptide)
peptide: Ac-IVLSLD[dV]PIKLK([γGlu-γGlu-C16 diacid])KILLEQEKQKKQREQAETN[Aib]QILAQV-NH2
SMILES: CC[C@H](C)[C@H](NC(C)=O)C(=O)N[C@H](C(=O)N[C@@H](CC(C)C)C(=O)N[C@@H](CO)C(=O)N[C@@H](CC(C)C)C(=O)N[C@@H](CC(=O)O)C(=O)N[C@@H](C(=O)N1CCC[C@H]1C(=O)N[C@H](C(=O)N[C@@H](CCCCN)C(=O)N[C@@H](CC(C)C)C(=O)N[C@@H](CCCCNC(=O)CC[C@H](NC(=O)CC[C@H](NC(=O)CCCCCCCCCCCCCCC(=O)O)C(=O)O)C(=O)O)C(=O)N[C@@H](CCCCN)C(=O)N[C@H](C(=O)N[C@@H](CC(C)C)C(=O)N[C@@H](CC(C)C)C(=O)N[C@@H](CCC(=O)O)C(=O)N[C@@H](CCC(N)=O)C(=O)N[C@@H](CCC(=O)O)C(=O)N[C@@H](CCCCN)C(=O)N[C@@H](CCC(N)=O)C(=O)N[C@@H](CCCCN)C(=O)N[C@@H](CCCCN)C(=O)N[C@@H](CCC(N)=O)C(=O)N[C@@H](CCCNC(=N)N)C(=O)N[C@@H](CCC(=O)O)C(=O)N[C@@H](CCC(N)=O)C(=O)N[C@@H](C)C(=O)N[C@@H](CCC(=O)O)C(=O)N[C@H](C(=O)N[C@@H](CC(N)=O)C(=O)NC(C)(C)C(=O)N[C@@H](CCC(N)=O)C(=O)N[C@H](C(=O)N[C@@H](CC(C)C)C(=O)N[C@@H](C)C(=O)N[C@@H](CCC(N)=O)C(=O)N[C@H](C(N)=O)C(C)C)[C@@H](C)CC)[C@@H](C)O)[C@@H](C)CC)[C@@H](C)CC)C(C)C)C(C)C
B2: SEQ ID NO 107 (peptide)
peptide: Ac-IVLSLD[dV]PIKLK([AEEA-AEEA-γGlu-C18 diacid])KILLEQEKQKKQREQAETN[Dap]QILAQV-NH2
SMILES: CC[C@H](C)[C@H](NC(C)=O)C(=O)N[C@H](C(=O)N[C@@H](CC(C)C)C(=O)N[C@@H](CO)C(=O)N[C@@H](CC(C)C)C(=O)N[C@@H](CC(=O)O)C(=O)N[C@@H](C(=O)N1CCC[C@H]1C(=O)N[C@H](C(=O)N[C@@H](CCCCN)C(=O)N[C@@H](CC(C)C)C(=O)N[C@@H](CCCCNC(=O)COCCOCCNC(=O)COCCOCCNC(=O)CC[C@H](NC(=O)CCCCCCCCCCCCCCCCC(=O)O)C(=O)O)C(=O)N[C@@H](CCCCN)C(=O)N[C@H](C(=O)N[C@@H](CC(C)C)C(=O)N[C@@H](CC(C)C)C(=O)N[C@@H](CCC(=O)O)C(=O)N[C@@H](CCC(N)=O)C(=O)N[C@@H](CCC(=O)O)C(=O)N[C@@H](CCCCN)C(=O)N[C@@H](CCC(N)=O)C(=O)N[C@@H](CCCCN)C(=O)N[C@@H](CCCCN)C(=O)N[C@@H](CCC(N)=O)C(=O)N[C@@H](CCCNC(=N)N)C(=O)N[C@@H](CCC(=O)O)C(=O)N[C@@H](CCC(N)=O)C(=O)N[C@@H](C)C(=O)N[C@@H](CCC(=O)O)C(=O)N[C@H](C(=O)N[C@@H](CC(N)=O)C(=O)N[C@@H](CN)C(=O)N[C@@H](CCC(N)=O)C(=O)N[C@H](C(=O)N[C@@H](CC(C)C)C(=O)N[C@@H](C)C(=O)N[C@@H](CCC(N)=O)C(=O)N[C@H](C(N)=O)C(C)C)[C@@H](C)CC)[C@@H](C)O)[C@@H](C)CC)[C@@H](C)CC)C(C)C)C(C)C
B3: SEQ ID NO 108 (peptide)
peptide: Ac-IVLSLD[dV]PIKLK([AEEA-AEEA-γGlu-C18 diacid])KILLEQEKQKKQREQAETNEQILAQV-NH2
SMILES: CC[C@H](C)[C@H](NC(C)=O)C(=O)N[C@H](C(=O)N[C@@H](CC(C)C)C(=O)N[C@@H](CO)C(=O)N[C@@H](CC(C)C)C(=O)N[C@@H](CC(=O)O)C(=O)N[C@@H](C(=O)N1CCC[C@H]1C(=O)N[C@H](C(=O)N[C@@H](CCCCN)C(=O)N[C@@H](CC(C)C)C(=O)N[C@@H](CCCCNC(=O)COCCOCCNC(=O)COCCOCCNC(=O)CC[C@H](NC(=O)CCCCCCCCCCCCCCCCC(=O)O)C(=O)O)C(=O)N[C@@H](CCCCN)C(=O)N[C@H](C(=O)N[C@@H](CC(C)C)C(=O)N[C@@H](CC(C)C)C(=O)N[C@@H](CCC(=O)O)C(=O)N[C@@H](CCC(N)=O)C(=O)N[C@@H](CCC(=O)O)C(=O)N[C@@H](CCCCN)C(=O)N[C@@H](CCC(N)=O)C(=O)N[C@@H](CCCCN)C(=O)N[C@@H](CCCCN)C(=O)N[C@@H](CCC(N)=O)C(=O)N[C@@H](CCCNC(=N)N)C(=O)N[C@@H](CCC(=O)O)C(=O)N[C@@H](CCC(N)=O)C(=O)N[C@@H](C)C(=O)N[C@@H](CCC(=O)O)C(=O)N[C@H](C(=O)N[C@@H](CC(N)=O)C(=O)N[C@@H](CCC(=O)O)C(=O)N[C@@H](CCC(N)=O)C(=O)N[C@H](C(=O)N[C@@H](CC(C)C)C(=O)N[C@@H](C)C(=O)N[C@@H](CCC(N)=O)C(=O)N[C@H](C(N)=O)C(C)C)[C@@H](C)CC)[C@@H](C)O)[C@@H](C)CC)[C@@H](C)CC)C(C)C)C(C)C
B4: SEQ ID NO 55 (peptide)
peptide: Ac-IVLSLD[dV]PIKLK([γGlu-C16 diacid])KILLEQEKQKKQREQAETN[Dap]QILAQV-NH2
SMILES: CC[C@H](C)[C@H](NC(C)=O)C(=O)N[C@H](C(=O)N[C@@H](CC(C)C)C(=O)N[C@@H](CO)C(=O)N[C@@H](CC(C)C)C(=O)N[C@@H](CC(=O)O)C(=O)N[C@@H](C(=O)N1CCC[C@H]1C(=O)N[C@H](C(=O)N[C@@H](CCCCN)C(=O)N[C@@H](CC(C)C)C(=O)N[C@@H](CCCCNC(=O)CC[C@H](NC(=O)CCCCCCCCCCCCCCC(=O)O)C(=O)O)C(=O)N[C@@H](CCCCN)C(=O)N[C@H](C(=O)N[C@@H](CC(C)C)C(=O)N[C@@H](CC(C)C)C(=O)N[C@@H](CCC(=O)O)C(=O)N[C@@H](CCC(N)=O)C(=O)N[C@@H](CCC(=O)O)C(=O)N[C@@H](CCCCN)C(=O)N[C@@H](CCC(N)=O)C(=O)N[C@@H](CCCCN)C(=O)N[C@@H](CCCCN)C(=O)N[C@@H](CCC(N)=O)C(=O)N[C@@H](CCCNC(=N)N)C(=O)N[C@@H](CCC(=O)O)C(=O)N[C@@H](CCC(N)=O)C(=O)N[C@@H](C)C(=O)N[C@@H](CCC(=O)O)C(=O)N[C@H](C(=O)N[C@@H](CC(N)=O)C(=O)N[C@@H](CN)C(=O)N[C@@H](CCC(N)=O)C(=O)N[C@H](C(=O)N[C@@H](CC(C)C)C(=O)N[C@@H](C)C(=O)N[C@@H](CCC(N)=O)C(=O)N[C@H](C(N)=O)C(C)C)[C@@H](C)CC)[C@@H](C)O)[C@@H](C)CC)[C@@H](C)CC)C(C)C)C(C)C
B5: SEQ ID NO 51 (peptide)
peptide: Ac-IVLSLD[dV]PIKLK([γGlu-C16 diacid])KILLEQEKQKKQREQAETN[Abu]QILAQV-NH2
SMILES: CC[C@H](NC(=O)[C@H](CC(N)=O)NC(=O)[C@@H](NC(=O)[C@H](CCC(=O)O)NC(=O)[C@H](C)NC(=O)[C@H](CCC(N)=O)NC(=O)[C@H](CCC(=O)O)NC(=O)[C@H](CCCNC(=N)N)NC(=O)[C@H](CCC(N)=O)NC(=O)[C@H](CCCCN)NC(=O)[C@H](CCCCN)NC(=O)[C@H](CCC(N)=O)NC(=O)[C@H](CCCCN)NC(=O)[C@H](CCC(=O)O)NC(=O)[C@H](CCC(N)=O)NC(=O)[C@H](CCC(=O)O)NC(=O)[C@H](CC(C)C)NC(=O)[C@H](CC(C)C)NC(=O)[C@@H](NC(=O)[C@H](CCCCN)NC(=O)[C@H](CCCCNC(=O)CC[C@H](NC(=O)CCCCCCCCCCCCCCC(=O)O)C(=O)O)NC(=O)[C@H](CC(C)C)NC(=O)[C@H](CCCCN)NC(=O)[C@@H](NC(=O)[C@@H]1CCCN1C(=O)[C@H](NC(=O)[C@H](CC(=O)O)NC(=O)[C@H](CC(C)C)NC(=O)[C@H](CO)NC(=O)[C@H](CC(C)C)NC(=O)[C@@H](NC(=O)[C@@H](NC(C)=O)[C@@H](C)CC)C(C)C)C(C)C)[C@@H](C)CC)[C@@H](C)CC)[C@@H](C)O)C(=O)N[C@@H](CCC(N)=O)C(=O)N[C@H](C(=O)N[C@@H](CC(C)C)C(=O)N[C@@H](C)C(=O)N[C@@H](CCC(N)=O)C(=O)N[C@H](C(N)=O)C(C)C)[C@@H](C)CC
B6: SEQ ID NO 52 (peptide)
peptide: Ac-IVLSLD[dV]PIKLK([γGlu-C16 diacid])KILLEQEKQKKQREQAETN[Nva]QILAQV-NH2
SMILES: CCC[C@H](NC(=O)[C@H](CC(N)=O)NC(=O)[C@@H](NC(=O)[C@H](CCC(=O)O)NC(=O)[C@H](C)NC(=O)[C@H](CCC(N)=O)NC(=O)[C@H](CCC(=O)O)NC(=O)[C@H](CCCNC(=N)N)NC(=O)[C@H](CCC(N)=O)NC(=O)[C@H](CCCCN)NC(=O)[C@H](CCCCN)NC(=O)[C@H](CCC(N)=O)NC(=O)[C@H](CCCCN)NC(=O)[C@H](CCC(=O)O)NC(=O)[C@H](CCC(N)=O)NC(=O)[C@H](CCC(=O)O)NC(=O)[C@H](CC(C)C)NC(=O)[C@H](CC(C)C)NC(=O)[C@@H](NC(=O)[C@H](CCCCN)NC(=O)[C@H](CCCCNC(=O)CC[C@H](NC(=O)CCCCCCCCCCCCCCC(=O)O)C(=O)O)NC(=O)[C@H](CC(C)C)NC(=O)[C@H](CCCCN)NC(=O)[C@@H](NC(=O)[C@@H]1CCCN1C(=O)[C@H](NC(=O)[C@H](CC(=O)O)NC(=O)[C@H](CC(C)C)NC(=O)[C@H](CO)NC(=O)[C@H](CC(C)C)NC(=O)[C@@H](NC(=O)[C@@H](NC(C)=O)[C@@H](C)CC)C(C)C)C(C)C)[C@@H](C)CC)[C@@H](C)CC)[C@@H](C)O)C(=O)N[C@@H](CCC(N)=O)C(=O)N[C@H](C(=O)N[C@@H](CC(C)C)C(=O)N[C@@H](C)C(=O)N[C@@H](CCC(N)=O)C(=O)N[C@H](C(N)=O)C(C)C)[C@@H](C)CC

Each binder was assayed against T1, CRF1R receptor (assay: cell-based or functional assay).
In the case of B1, the “Emax (% I)” value is reported as 7%. In the case of Ac-IVLSLD[dV]PIKLK([AEEA-AEEA-γGlu-C18 diacid])KILLEQEKQKKQREQAETN[αMeK]QILAQV-NH2 (not fully specified) [SEQ ID NO 106], the “Emax (% I)” value is reported as 6%. In the case of B2, the “Emax (% I)” value is reported as 0%. For B3, the “Emax (% I)” value was 4%. With B4 the “Emax (% I)” value was 5%. For B5, the “Emax (% I)” value was 9%. B6 was tested, and the “Emax (% I)” value was 7%.

Each binder was assayed against human corticotropin-releasing factor 2a (CRF2a receptor) (human), Q13324 (assay: cell-based or functional assay).
human corticotropin-releasing factor 2a (CRF2a receptor) (human), Q13324, sequence (Q13324 20-411): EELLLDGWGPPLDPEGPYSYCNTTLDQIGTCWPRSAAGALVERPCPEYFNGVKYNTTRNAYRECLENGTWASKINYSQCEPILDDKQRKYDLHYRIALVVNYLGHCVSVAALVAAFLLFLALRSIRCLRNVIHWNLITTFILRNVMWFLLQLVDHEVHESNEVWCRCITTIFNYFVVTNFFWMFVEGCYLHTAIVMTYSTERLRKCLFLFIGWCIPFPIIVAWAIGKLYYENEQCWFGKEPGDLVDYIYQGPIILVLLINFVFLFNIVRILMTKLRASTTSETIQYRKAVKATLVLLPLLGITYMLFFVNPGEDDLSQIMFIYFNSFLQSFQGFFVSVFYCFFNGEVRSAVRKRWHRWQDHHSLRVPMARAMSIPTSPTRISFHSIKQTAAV
An EC50 [nM] (cAMP) of 1.85 nM was found for B1 in this work. An EC50 [nM] (cAMP) of 0.35 nM was found for Ac-IVLSLD[dV]PIKLK([AEEA-AEEA-γGlu-C18 diacid])KILLEQEKQKKQREQAETN[αMeK]QILAQV-NH2 (not fully specified) [SEQ ID NO 106] in this work. An EC50 [nM] (cAMP) of 1.43 nM was found for B2 in this work. An EC50 [nM] (cAMP) of 1.14 nM was found for B3 in this work. An EC50 [nM] (cAMP) of 0.42 nM was found for B4 in this work. An EC50 [nM] (cAMP) of 0.12 nM was found for B5 in this work. An EC50 [nM] (cAMP) of 0.17 nM was found for B6 in this work.
